Earlier results on 1 substance are cited in patent US20080070838A1, “Growth Factor Treatment for Asthma” (University of Southampton, priority 2004, published 2008).

In this data set the test system is airway fibrosis. Particulars: mouse, in vivo.

As to “TGFα: structural homologue of EGF and a ligand for the EGF receptor”, the airway fibrosis entry is listed as “marked airway fibrosis”.
